The values that follow come from paper PMC5658623.

The experiment has as its target PhaPTD from Halomonas bluephagenesis TD01 (Halomonas bluephagenesis TD01). Kind of experiment: SEC-MALS; Superdex 200 gel filtration connected to an eighteen-angle static light scattering system (DAWN HELEOS II); HBS buffer (1.5 mM Na2HPO4, 50 mM HEPS, 150 mM NaCl); sample at 1 mg/mL; 0.5 mL/min; 16°C.

In general, stoichiometry N refers to the number of molecules, sites or subunits per partner or assembly.

In turn, “PhaPTD from Halomonas bluephagenesis TD01 (natural protein)” yielded a stoichiometry N of 3.
